Experimental findings from patent US20250108132A1 are described below.

The experiment deals with purified cyno C3 protein (CompTech, CY113) (cynomolgous monkey (Macaca fascicularis)). The experiment in a line: sandwich ELISA; known concentrations of purified cyno C3 read on the human C3 kit, relative to human C3. Background: An ELISA detects its analyte on a solid surface through an enzyme-linked reagent.

The substance “human C3 ELISA kit (Abcam, ab108823) (antibody)” registered a cross-reactivity of 30%.
